Experimental data taken from doi:10.1101/2020.07.24.220665 (bioRxiv, 2020).
Values joined by “and” are separate entries in the source; they are usually repeats but may differ in a detail not shown here. Equal entries are not always repeated.

B1: granulin-3 (GRN-3) (natural protein, UniProt P28799 206-261, looked up)
chain: VMCPDARSRCPDGSTCCELPSGKWGCCPMPNATCCSDHLHCCPQDTVCDLIQSKCL
B2: granulin-5 (GRN-5) (natural protein, UniProt P28799 364-417, looked up)
chain: VPCDNVSSCPSSDTCCQLTSGEWGCCPIPEAVCCSDHQHCCPQGYTCVAEGQCQ

Target: the molecule itself
Test: non-reducing PAGE

Row | Protein | stoichiometry N | binding result
1 | B1 | 2 and 3 | 
2 | B2 |  | binds
